The source of these data is paper PMC5214741.

Assay [1] has as its target E. coli F-ATPase subunit b (cysteine-free F-ATPase) (E. coli) (UniProt P0ABA0). The assay can be described thus: cryo-EM structure; purified cysteine-free E. coli F-ATPase in digitonin at 3.58 μM, no nucleotides added; three rotational states at 6.9, 7.8 and 8.5 Å; models built by docking crystal, NMR and homology models, side chains pruned to Cα.
Assay [2] has as its target E. coli F-ATPase subunit c (cysteine-free F-ATPase) (E. coli) (UniProt P68699). Described as above.

In the case of “E. coli F-ATPase subunit b (cysteine-free F-ATPase) (from UniProt P0ABA0 2-156) (natural protein)”, the stoichiometry N in assay [1] amounted to 2.

The substance “E. coli F-ATPase subunit c (cysteine-free F-ATPase) (from UniProt P68699 1-79) (natural protein)” registered a stoichiometry N in assay [2] of 10.

The stoichiometry N is the number of molecules, sites or subunits per partner or assembly.
